# Source: US20110028688A1 (published 2011)
# T1: human OX40 receptor (hOX40), residues 29-170 (human, UniProt P43489 29-170, in the competition ELISA only: biotinylated with a 4 fold molar excess of biotin-NHS-LC (sites not given))
# T1 construct: Secreted from High Five insect cells (baculovirus), His-tag cleaved; also called hOX40 receptor; monomeric hOX40
# T1 sequence: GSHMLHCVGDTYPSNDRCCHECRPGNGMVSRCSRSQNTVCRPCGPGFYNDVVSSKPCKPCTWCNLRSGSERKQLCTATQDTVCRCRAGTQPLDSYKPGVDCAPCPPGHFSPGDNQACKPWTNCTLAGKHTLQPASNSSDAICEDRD
# T2: human OX40 receptor (hOX40), residues 29-170 (human, UniProt P43489 29-170, biotinylated with biotin-NHS-LC in the competition ELISA (Table II); not biotinylated in the crystals (Tables 6 and 7))
# T2 construct: Monomeric soluble receptor fragment; also called hOX40Receptor; HOX40 receptor
# T2 sequence: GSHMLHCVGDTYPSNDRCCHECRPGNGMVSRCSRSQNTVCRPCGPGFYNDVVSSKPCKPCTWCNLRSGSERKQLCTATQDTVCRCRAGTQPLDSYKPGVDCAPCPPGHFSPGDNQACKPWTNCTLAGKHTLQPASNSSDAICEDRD
# What was measured:
# [1] = target: T1, human OX40 receptor (hOX40), residues …; experiment: competition ELISA, alanine mutant against the N90D, N114D reference
# [2] = target: T2, human OX40 receptor (hOX40), residues …; experiment: competition ELISA; relative to hOX40L N90D, N114D
# [3] = target: T2, human OX40 receptor (hOX40), residues …; experiment: competition ELISA; hOX40L in solution with biotinylated hOX40, unbound receptor captured on plate-coated mOX40L (competitor)
# [4] = target: T1, human OX40 receptor (hOX40), residues …; experiment: competition ELISA (biotinylated hOX40 pre-incubated with mutant, unbound receptor captured on mOX40L-coated plate)
# [5] = target: T2, human OX40 receptor (hOX40), residues …; experiment: competition ELISA; mutant in solution with biotinylated hOX40, unbound receptor captured on mOX40L-coated plate (N.D.: no detectable competition)
Binder,"Fold-change in IC50 (Mutant/N90D, N114D) [2]",IC50 [3],further results
"human OX40L residues 51-183 N90D, N114D, D162A (ligand, Single alanine mutant in the N90D, N114D background) GSHMQVSHRYPRIQSIKVQFTEYKKEKGFILTSQKEDEIMKVQDNSVIINCDGFYLISLKGYFSQEVDISLHYQKDEEPLFQLKKVRSVNSLMVASLTYKDKVYLNVTTDNTSLDAFHVNGGELILIHQNPGEFCVL",–,–,fold change in IC50 [1]: ≥ 3 fold
"human OX40L (hOX40L), wild type, residues 51-183 (ligand, Homotrimer; also called WT; OX40 ligand) GSHMQVSHRYPRIQSIKVQFTEYKKEKGFILTSQKEDEIMKVQNNSVIINCDGFYLISLKGYFSQEVNISLHYQKDEEPLFQLKKVRSVNSLMVASLTYKDKVYLNVTTDNTSLDDFHVNGGELILIHQNPGEFCVL",2.2 fold,0.139 µM,–
"human OX40L T144A in the N90D, N114D background, residues 51-183 (ligand, Properly assembled trimer by size exclusion chromatography) GSHMQVSHRYPRIQSIKVQFTEYKKEKGFILTSQKEDEIMKVQDNSVIINCDGFYLISLKGYFSQEVDISLHYQKDEEPLFQLKKVRSVNSLMVASLAYKDKVYLNVTTDNTSLDDFHVNGGELILIHQNPGEFCVL",2.2 fold,0.139 µM,–
"human OX40L residues 51-183 N90D, N114D, N166A (ligand, Single alanine mutant in the N90D, N114D background) GSHMQVSHRYPRIQSIKVQFTEYKKEKGFILTSQKEDEIMKVQDNSVIINCDGFYLISLKGYFSQEVDISLHYQKDEEPLFQLKKVRSVNSLMVASLTYKDKVYLNVTTDNTSLDDFHVAGGELILIHQNPGEFCVL",–,–,binding result [4]: no binding
"human OX40L D162A in the N90D, N114D background, residues 51-183 (ligand, Properly assembled trimer by size exclusion chromatography) GSHMQVSHRYPRIQSIKVQFTEYKKEKGFILTSQKEDEIMKVQDNSVIINCDGFYLISLKGYFSQEVDISLHYQKDEEPLFQLKKVRSVNSLMVASLTYKDKVYLNVTTDNTSLDAFHVNGGELILIHQNPGEFCVL",6.9 fold,0.425 µM,–
"human OX40L F180A in the N90D, N114D background, residues 51-183 (ligand, Properly assembled trimer by size exclusion chromatography) GSHMQVSHRYPRIQSIKVQFTEYKKEKGFILTSQKEDEIMKVQDNSVIINCDGFYLISLKGYFSQEVDISLHYQKDEEPLFQLKKVRSVNSLMVASLTYKDKVYLNVTTDNTSLDDFHVNGGELILIHQNPGEACVL",–,–,binding result [5]: no binding
"human OX40L residues 51-183 N90D, N114D, Q80A (ligand, Single alanine mutant in the N90D, N114D background) GSHMQVSHRYPRIQSIKVQFTEYKKEKGFILTSAKEDEIMKVQDNSVIINCDGFYLISLKGYFSQEVDISLHYQKDEEPLFQLKKVRSVNSLMVASLTYKDKVYLNVTTDNTSLDDFHVNGGELILIHQNPGEFCVL",–,–,fold change in IC50 [1]: ≥ 3 fold
"human OX40L Q80A in the N90D, N114D background, residues 51-183 (ligand, Properly assembled trimer by size exclusion chromatography) GSHMQVSHRYPRIQSIKVQFTEYKKEKGFILTSAKEDEIMKVQDNSVIINCDGFYLISLKGYFSQEVDISLHYQKDEEPLFQLKKVRSVNSLMVASLTYKDKVYLNVTTDNTSLDDFHVNGGELILIHQNPGEFCVL",8.6 fold,0.537 µM,–
"human OX40L N166A in the N90D, N114D background, residues 51-183 (ligand, Properly assembled trimer by size exclusion chromatography) GSHMQVSHRYPRIQSIKVQFTEYKKEKGFILTSQKEDEIMKVQDNSVIINCDGFYLISLKGYFSQEVDISLHYQKDEEPLFQLKKVRSVNSLMVASLTYKDKVYLNVTTDNTSLDDFHVAGGELILIHQNPGEFCVL",–,–,binding result [5]: no binding
"human OX40L (hOX40L) N90D, N114D double glycosylation mutant, residues 51-183 (ligand, Homotrimer; also called hOX40Ligand; hOX40L double glycosylation mutant) GSHMQVSHRYPRIQSIKVQFTEYKKEKGFILTSQKEDEIMKVQDNSVIINCDGFYLISLKGYFSQEVDISLHYQKDEEPLFQLKKVRSVNSLMVASLTYKDKVYLNVTTDNTSLDDFHVNGGELILIHQNPGEFCVL",–,0.062 µM,–
"human OX40L residues 51-183 N90D, N114D, F180A (ligand, Single alanine mutant in the N90D, N114D background) GSHMQVSHRYPRIQSIKVQFTEYKKEKGFILTSQKEDEIMKVQDNSVIINCDGFYLISLKGYFSQEVDISLHYQKDEEPLFQLKKVRSVNSLMVASLTYKDKVYLNVTTDNTSLDDFHVNGGELILIHQNPGEACVL",–,–,binding result [4]: no binding
"human OX40L E123A in the N90D, N114D background, residues 51-183 (ligand, Properly assembled trimer by size exclusion chromatography) GSHMQVSHRYPRIQSIKVQFTEYKKEKGFILTSQKEDEIMKVQDNSVIINCDGFYLISLKGYFSQEVDISLHYQKDAEPLFQLKKVRSVNSLMVASLTYKDKVYLNVTTDNTSLDDFHVNGGELILIHQNPGEFCVL",3 fold,0.186 µM,–
